Patent publication US20140363427A1 (CRUCELL HOLLAND B V, published 2014)
Like-named read-outs stand apart in the source and are kept apart here.

Key:
[1] = molecular target: T1, native RSV F protein from the RSV A2 strain (Respiratory Syncytial Virus strain A2, UniProt P03420 26-574); assay: cell-based or functional assay
[2] = molecular target: T2, recombinant RSV F protein, strain A2, extracellular domain (Respiratory Syncytial Virus strain A2, UniProt P03420 26-524); assay: ELISA, purified Fab, estimated EC50
T2 construct: also called RSV F1 lysate (recombinant); RSV F lysate

[3] = molecular target: T1, native RSV F protein from the RSV A2 …; assay: cell-based or functional assay; remark: listed apart in the source
F protein of RSV B-1 = F protein of RSV B-1 (respiratory syncytial virus B-1, UniProt O36634 26-574); assay: cell-based or functional assay
[4] = molecular target: F protein of RSV B-wash (strain 18537) (respiratory syncytial virus B, strain …, UniProt P13843 26-574); assay: cell-based or functional assay
[5] = molecular target: F protein of the parental RSV A2 strain (Example 11) (Respiratory Syncytial Virus strain A2, UniProt P03420 26-574); assay: cell-based or functional assay
RSV F A2 mutant V278M = molecular target: T3, RSV F A2 mutant V278M (human RSV, A2 strain, UniProt P03420 26-574); assay: mutant F in HEK 293 cells
T3 construct: whole, on cells

B1: Fab 14G3 (Fab, V domains shown)
VH: QVQLQESGPGLVKPSQTLSLTCTVSGASISSDNHYWSWIRQPPGKGLEWIASIYYTGGTNYNPSLKSRLALSIDTSGDQFSLKLSSVTAADTAVYYCVRGLFFITARPYWYFDLWGRGTLVAVSS
VL: DVVMTQTPLSLSVTPGEPASISCRSSQSLLDSDDGNTYLDWYLQKPGQSPQLLIYTLSYRASGVPDRFSGSGSGTDFTLKISRVEADDVGIYYCMQRMEFPFTFGQGTRLDIKR
With B1 the “ED50, plaque reduction, RSV A2” value [1] was 3.4 nM, the “ED50, plaque reduction, RSV A2 (mass concentration)” value [1] was 0.172 µg/mL and the EC50 [2] was 8.2 nM.

B2: IgG form of 30D8 (antibody, V domains shown)
VH: EVQLLQSGAELKKPGASVKISCKTSGFTFSGHTIAWVRQAPGQGLEWMGWVSTNNGNTEYAQKIQGRVTMTMDTSTSTVYMELRSLTSDDTAVYFCAREWLVMGGFAFDHWGQGTLLTVSS
VL: QSVLTQASSVSVAPGQTARITCGANNIGSQNVHWYQQKPGQAPVLVVYDDRDRPSGIPDRFSGSNSGNTATLTISRVEAGDEADYYCQVWDSSRDQAVIFGGGTKLTVLG
notes: also called IgG 30D8; 30D8 Mab
B2 was tested, and the “ED50, plaque reduction, RSV A2” value [3] was 0.089 nM, the “ED50, plaque reduction, RSV B-1” value (F protein of RSV B-1) was 0.055 nM and the “ED50, plaque reduction, RSV B/wash” value [4] was 0.115 nM. For the same binder, the “ED50, plaque reduction, RSV A2 parental” value [5] was 0.096 nM and the “ratio of binding 58C5/30D8” value (RSV F A2 mutant V278M) was 3.1.
